Some results are limits rather than exact numbers.

Assay [1] addresses ligand-binding domain of the human nAChR α9 subunit, de-glycosylated, His-tagged (human) (UniProt Q9UGM1). The assay can be described thus: […] (20 mM Tris-HCl pH 8.0, 1 mg/mL BSA); […].
The target in assay [2] is Aplysia californica acetylcholine-binding protein (Aplysia californica). Nature of the assay: radioligand binding.

As to “αO-conotoxin GeXIVA, beads isomer (peptide)”, the IC50 in assay [1] was found to be 1630 nM; in assay [2], 2900 nM.
In the case of “αO-conotoxin GeXIVA, globular isomer (peptide)”, in assay [2], the IC50 came out at 2900 nM.
“α-conotoxin RgIA, globular isomer (from UniProt P0C1D0 20-32) (peptide)”: the IC50 in assay [1] was above 60000 nM; in assay [2], 194 nM.
“αO-conotoxin GeXIVA, ribbon isomer (peptide)” came in with an IC50 in assay [2] of 2900 nM.
The same measure, in the same setting: in the case of “α-conotoxin RgIA, ribbon isomer (from UniProt P0C1D0 20-32) (peptide)” it was 1000 nM.

(Values after publication PMC6315749 (Marine Drugs, 2018).)
